Reference: patent US20260139017A1, “COMPOSITIONS AND METHODS USING REELIN IN ALZHEIMER'S DISEASE” (The General Hospital Corporation, priority 2022, published 2026)

How the values were obtained:
pDAB1 = test: Trans-nasal (MIND) delivery of mini-RELN in mice, brain pDAB1 western blot; type: in vivo; conditions: WT male mice, 72 h post-trans-nasal delivery
Text: We used a MIND procure (trans nasal delivery using Minimally Invasive Nasal Depot (MIND), Padmakumar et al., J Control Release. 2021 Mar. 10; 331: 176-186) or intraperitoneal injection to administer miniRELN constructs into mice. MIND leverages the olfactory nerve to bypass the blood brain barrier. […] Using the MIND methodology provides one method of reaching the entorhinal cortex with minimal systemic exposure. […] (Jackson Laboratory) were housed under regular light/night cycle. All procedures were conducted under approved IACUC animal protocols. Prior to incision, the nasal region was shaved and cleaned using betadine and 70% alcohol and mouse subcutaneously injected with buprenorphine HCl and meloxicam (5 mg/kg). The nasal cavity was then opened using a scalped and nasal mucosa exposed using a microdrill. Once the mucosa was exposed, gel dispersion of either PBS or mini-RELN constructs (Innovagen) in 20% Pluronic (Sigma Aldrich) was subcutaneously delivered in the surgically-generated pocket. Mice were injected with meloxicam for 3 days prior euthanasia at day 4 to collect the brain tissue used for post-mortem analysis.
Western blotting was performed as follows. 20 ug protein homogenates were prepared under reducing and denaturing conditions using Laemmli buffer enriched with 10 mM DTT and 5 min boiling. Samples were electrophoretically separated in a 4-20% Gel at 90V and protein transferred to a PVDF membrane using iBlot™ 2 Dry Blotting System. The membrane was blocked using Intercept® (TBS) Blocking Buffer for 2 hours. We detected pDAB1 (Tyr232; 1:1000, rabbit, #3325 Cell signaling), and Beta actin (1:5000, mouse, #66009-1-Ig, Proteintech). Antibodies were diluted using Intercept® (TBS) Blocking Buffer and incubated overnight at 4C under gentle shaking. Prior secondary antibody incubation, membranes were washes 2 times using TBS-T for 10 minutes. As secondary antibodies we used IR Dye 800n CW Goat-anti-Rabbit (925-32211, Licor) and IR Dye 680 CW Goat-anti-Mouse (925-68070, Licor) both diluted 1:10000 in blocking buffer for 1 h at room temperature under gentle shaking. Membranes were washed three times with TBS-T prior IR detection using Odyssey imager. To quantify the results, each band was quantified using ImageJ and data expressed as pDAB1:βActin ratio normalized to the control.

pDAB1 (Tyr232) = test: HRECs treated 5 minutes with recombinant mini-RELN, pDAB1 western blot; type: cell-based, human
In short: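 Serum-starved (2 h) HRECs at passage 7 given recombinant mini-RELN constructs or mouse Reelin at 4 ug/mL for 5 min, then lysed. Western blot of 3.5 ug lysate for pDAB1 (Tyr232) with IR detection. Value is pDAB1:total protein band ratio normalized to control.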

pTau S396 = test: Intraperitoneal mini-RELN in MAPT P301S Tau Tg mice, pTau S396 immunofluorescence; type: in vivo; conditions: 6 months old female MAPT P301S mice, intraperitoneal days 1-4, hippocampal and entorhinal regions, vs PBS
Protocol: The effects of systemic delivery of mini-RELN peptides was evaluated in vivo. 6 months old female MAPT P301S Tau Tg mice were injected intraperitoneally on day 1 with 500 μL and on day 2-4 with 250 μL solutions of either vehicle (PBS) or mini-RELN peptides. On Day 5, mice were euthanized with saturating concentration CO2 gas and intracardially perfused with 4% PFA. Brains were subsequently harvested and used for histological analyses.
Immunofluorescence staining of murine brains was performed as follows. 24 hours post fixation with 4% PFA at 4° C., sagittal brain sections were obtained at 1 mm thickness using a stainless-steel brain matrix. The entorhinal-hippocampal section of each brain was chosen for Clarity using Binaree® Tissue Clearing™ Kit (HRTC-012) following the kit guidelines. Sections were incubated with pTauS396 primary antibody for 72 h followed by secondary antibody: Alexa 647, and DAPI for 1 h. Subsequently, sections were imaged using confocal SP8 microscope for quantification. Fourteen images were taken at 63× magnification per group. Fluorescence intensity of pTau was quantified automatically using Matlab (2021a). Otsu's thresholding method was used to get a mask of the image signal and then the mean intensity of the signal was computed.

B1: RAP-FcIgG-CTRH3447R (protein)
chain: MYRMQLLSCIALSLALVTNSMAPRRVRSFLRGLPALLLLLLFLGPWPAASHGGKYSREKNQPKPSPKRESGEEFRMEKLNQLWEKAQRLHLPPVRLAELHADLKIQERDELAWKKLKLDGLDEDGEKEARLIRNLNVILAKYGLDGKKDARQVTSNSLSGTQEDGLDDPRLEKLWHKAKTSGKFSGEELDKLWREFLHHKEKVHEYNVLLETLSRTEEIHENVISPSDLSDIKGSVLHSRHTELKEKLRSINQGLDRLRRVSHQGYSTEAEFEEPRVIDLWDLAQSANLTDKELEAFREELKHFEAKIEKHNHYQKQLEIAHEKLRHAESVGDGERVSRSREKHALLEGRTKELGYTVKKHLQDLSGRISRARHNELTGGSGGNSAPLERKSSVECPPCPAPPVAGPSVFLFPPKPKDTLMISRTPEVTCVVVDVSHEDPEVQFNWYVDGVEVHNAKTKPREEQFNSTFRVVSVLTVVHQDWLNGKEYKCKVSNKGLPAPIEKTISKTKGQPREPQVYTLPPSREEMTKNQVSLTCLVKGFYPSDIAVEWESNGQPENNYKTTPPMLDSDGSFFLYSKLTVDKSRWQQGNVFSCSVMHEALHNHYTQKSLSLSPGARTGGGGSGGGGSSTRKQNYMMNFSRQHGLRRFYNRRRRSLRRYP
pDAB1 levels in the hippocampus (pDAB1): increased | pDAB1 levels in the midbrain (pDAB1): increased | efficacy at RELN signaling (pDAB1) relative to comparators (pDAB1 (Tyr232); 5 minutes treatment): more effective than controls | pDAB1 levels (pDAB1 (Tyr232); 5 minutes, 4 ug/mL recombinant protein): increased pDAB1 levels | pTau S396 fluorescence intensity (pTau S396): decreased levels of pTau S396 signaling
